Reference: patent publication US20220332804A1 (CSL INNOVATION, published 2022)
Numbering of substitutions follows the chain as printed.

Tests used:
Test in all cases: SPR; KD relative to WT C2;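 note: biacore SPR at 37 °C, anti-C2 mAbs captured on an anti-human IgG chip, alanine or serine C2 surface mutants tested, KD from 1:1 fit compared with wild-type C2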
human C2 G414A = biological target: T1, human C2 G414A (human, UniProt P06681 21-752)
T1 sequence: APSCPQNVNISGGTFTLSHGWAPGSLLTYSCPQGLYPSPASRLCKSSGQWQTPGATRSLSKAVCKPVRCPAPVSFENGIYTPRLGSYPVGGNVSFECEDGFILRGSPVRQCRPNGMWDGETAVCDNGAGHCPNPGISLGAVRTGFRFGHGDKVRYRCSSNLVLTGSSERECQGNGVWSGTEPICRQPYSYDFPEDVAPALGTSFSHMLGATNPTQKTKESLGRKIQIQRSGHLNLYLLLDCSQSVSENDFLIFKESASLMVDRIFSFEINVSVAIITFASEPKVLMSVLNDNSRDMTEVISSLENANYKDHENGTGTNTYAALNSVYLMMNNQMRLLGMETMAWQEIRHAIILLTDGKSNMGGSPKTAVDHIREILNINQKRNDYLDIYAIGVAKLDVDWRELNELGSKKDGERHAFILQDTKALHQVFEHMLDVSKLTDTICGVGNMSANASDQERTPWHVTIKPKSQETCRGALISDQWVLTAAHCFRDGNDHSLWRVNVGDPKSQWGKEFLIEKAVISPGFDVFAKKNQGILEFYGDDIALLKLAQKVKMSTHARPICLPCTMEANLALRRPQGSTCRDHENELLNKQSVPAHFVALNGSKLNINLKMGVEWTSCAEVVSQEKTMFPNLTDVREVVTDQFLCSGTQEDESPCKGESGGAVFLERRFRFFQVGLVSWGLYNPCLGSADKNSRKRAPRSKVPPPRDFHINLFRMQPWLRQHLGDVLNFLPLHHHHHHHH

human C2 K329A = biological target: T2, human C2 K329A (human, UniProt P06681 21-752)
T2 sequence: T1 sequence with K309A, A394G

human C2 K457A = biological target: T3, human C2 K457A (human, UniProt P06681 21-752)
T3 sequence: T1 sequence with A394G, K437A

human C2 G677A = biological target: T4, human C2 G677A (human, UniProt P06681 21-752)
T4 sequence: T1 sequence with A394G, G657A

B1: RF16-214 (antibody, V domains shown)
VH: EVQLLESGGGLVQPGGSLRLSCAASGFTFSWYQMMWVRQAPGKGLEWVSRIYPSGGGTAYADSVKGRFTISRDNSKNTLYLQMNSLRAEDTAVYYCARDAGYGDNWGQGTLVTVSS
VL: QSALTQPPSVSVSPGQTASITCSGDKLGEKYASWYQQKAGQSPVMVIYQDRKRPSGIPERFSGSNSGNTATLTISGTQAMDEADYYCQAWDTRAVVFGGGTKLTVLG
In the case of B1, the Fold diff (human C2 G414A) is reported as 0 fold, the Fold diff (human C2 K329A) is reported as 2 fold and the Fold diff (human C2 K457A) is reported as 1 fold. For the same binder, the Fold diff (human C2 G677A) was 1 fold.
